In patent publication US20140087995A1 (published 2014):
Numbered stars: 1 amine (or outer) side, 2 acyl side, 3 side chain; on linkers, the order of the positions; unused ones are H or OH. Bridge positions count the residues as written; N and C are the ends. Side chains are listed from the residue outwards. Ends that are not written are not given here. * marks the point of attachment. C20 diacid = O=C(O)CCCCCCCCCCCCCCCCCCC(=O)*; γGlu = O=C(O)[C@H](CCC(=O)[*:2])N[*:1]; AEEA = NCCOCCOCC(=O)O

T1: human amylin receptor (human, UniProt P30988 25-474; O60896 24-148, limits assumed)
T1 construct: whole, on cells; Calcitonin receptor plus RAMP-3 gives the amylin 3(a) receptor; membranes of Amylin 3(a)/CRE-luc cells were used; also called hAmylin-R; hAmylinR
T1 sequence (looked up) 1: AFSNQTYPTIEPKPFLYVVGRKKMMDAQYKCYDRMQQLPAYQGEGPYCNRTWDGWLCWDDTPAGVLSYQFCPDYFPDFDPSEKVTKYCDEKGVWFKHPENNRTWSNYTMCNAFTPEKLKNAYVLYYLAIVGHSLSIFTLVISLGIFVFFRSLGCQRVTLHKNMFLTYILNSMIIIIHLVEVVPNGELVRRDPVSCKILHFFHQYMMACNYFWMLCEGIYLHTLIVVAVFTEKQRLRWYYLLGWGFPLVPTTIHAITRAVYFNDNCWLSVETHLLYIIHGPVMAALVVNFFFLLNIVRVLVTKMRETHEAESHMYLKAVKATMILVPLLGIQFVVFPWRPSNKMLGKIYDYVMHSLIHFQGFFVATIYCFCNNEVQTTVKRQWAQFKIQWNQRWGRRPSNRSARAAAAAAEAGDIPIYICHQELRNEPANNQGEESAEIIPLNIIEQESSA
T1 sequence (looked up) 2: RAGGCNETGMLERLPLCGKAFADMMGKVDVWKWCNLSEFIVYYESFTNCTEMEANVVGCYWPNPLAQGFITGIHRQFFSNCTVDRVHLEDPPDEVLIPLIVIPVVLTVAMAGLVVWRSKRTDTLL


The binders below were run against T1, human amylin receptor (assay: SPA competition binding, displacement of 125I-rat amylin from membranes with human amylin 3(a) receptor (Assay V)).
Summary of the method: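 One-site competition analysis of SPA counts yielded IC₅₀ as a measure of affinity. Membranes were at 35 ng/μL final; incubation was 120 min at 25° C, pH 7.4.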

IC50	Binder
49 pM	K([AEEA-γGlu-C20 diacid])CNTATCATQRLANFLRHSSPNFGAIPSPTNVGPNTY-NH2 (disulfide 2-7; N-terminus assumed; SMILES CC[C@H](C)[C@H](NC(=O)[C@H](C)NC(=O)CNC(=O)[C@H](Cc1ccccc1)NC(=O)[C@H](CC(N)=O)NC(=O)[C@@H]1CCCN1C(=O)[C@H](CO)NC(=O)[C@H](CO)NC(=O)[C@H](Cc1c[nH]cn1)NC(=O)[C@H](CCCNC(=N)N)NC(=O)[C@H](CC(C)C)NC(=O)[C@H](Cc1ccccc1)NC(=O)[C@H](CC(N)=O)NC(=O)[C@H](C)NC(=O)[C@H](CC(C)C)NC(=O)[C@H](CCCNC(=N)N)NC(=O)[C@H](CCC(N)=O)NC(=O)[C@@H](NC(=O)[C@H](C)NC(=O)[C@@H]1CSSC[C@H](NC(=O)[C@@H](N)CCCCNC(=O)COCCOCCNC(=O)CC[C@H](NC(=O)CCCCCCCCCCCCCCCCCCC(=O)O)C(=O)O)C(=O)N[C@@H](CC(N)=O)C(=O)N[C@@H]([C@@H](C)O)C(=O)N[C@@H](C)C(=O)N[C@@H]([C@@H](C)O)C(=O)N1)[C@@H](C)O)C(=O)N1CCC[C@H]1C(=O)N[C@@H](CO)C(=O)N1CCC[C@H]1C(=O)N[C@H](C(=O)N[C@@H](CC(N)=O)C(=O)N[C@H](C(=O)NCC(=O)N1CCC[C@H]1C(=O)N[C@@H](CC(N)=O)C(=O)N[C@H](C(=O)N[C@@H](Cc1ccc(O)cc1)C(N)=O)[C@@H](C)O)C(C)C)[C@@H](C)O, also called 17R, 21P, 27P, 29P, 34P)
115 pM	K([AEEA-γGlu-C20 diacid])CNTATCATQRLANFLRHSSPNFGAIPSSTPVGSHTY-NH2 (disulfide 2-7; N-terminus assumed; SMILES CC[C@H](C)[C@H](NC(=O)[C@H](C)NC(=O)CNC(=O)[C@H](Cc1ccccc1)NC(=O)[C@H](CC(N)=O)NC(=O)[C@@H]1CCCN1C(=O)[C@H](CO)NC(=O)[C@H](CO)NC(=O)[C@H](Cc1c[nH]cn1)NC(=O)[C@H](CCCNC(=N)N)NC(=O)[C@H](CC(C)C)NC(=O)[C@H](Cc1ccccc1)NC(=O)[C@H](CC(N)=O)NC(=O)[C@H](C)NC(=O)[C@H](CC(C)C)NC(=O)[C@H](CCCNC(=N)N)NC(=O)[C@H](CCC(N)=O)NC(=O)[C@@H](NC(=O)[C@H](C)NC(=O)[C@@H]1CSSC[C@H](NC(=O)[C@@H](N)CCCCNC(=O)COCCOCCNC(=O)CC[C@H](NC(=O)CCCCCCCCCCCCCCCCCCC(=O)O)C(=O)O)C(=O)N[C@@H](CC(N)=O)C(=O)N[C@@H]([C@@H](C)O)C(=O)N[C@@H](C)C(=O)N[C@@H]([C@@H](C)O)C(=O)N1)[C@@H](C)O)C(=O)N1CCC[C@H]1C(=O)N[C@@H](CO)C(=O)N[C@@H](CO)C(=O)N[C@H](C(=O)N1CCC[C@H]1C(=O)N[C@H](C(=O)NCC(=O)N[C@@H](CO)C(=O)N[C@@H](Cc1c[nH]cn1)C(=O)N[C@H](C(=O)N[C@@H](Cc1ccc(O)cc1)C(N)=O)[C@@H](C)O)C(C)C)[C@@H](C)O, also called 17R, 21P, 27P, 31P, 35H)
38 pM	K([AEEA-γGlu-C20 diacid])CNTATCATQRLANFLRHSSPNFGAIPSSTNVGPNTY-NH2 (disulfide 2-7; N-terminus assumed; SMILES CC[C@H](C)[C@H](NC(=O)[C@H](C)NC(=O)CNC(=O)[C@H](Cc1ccccc1)NC(=O)[C@H](CC(N)=O)NC(=O)[C@@H]1CCCN1C(=O)[C@H](CO)NC(=O)[C@H](CO)NC(=O)[C@H](Cc1c[nH]cn1)NC(=O)[C@H](CCCNC(=N)N)NC(=O)[C@H](CC(C)C)NC(=O)[C@H](Cc1ccccc1)NC(=O)[C@H](CC(N)=O)NC(=O)[C@H](C)NC(=O)[C@H](CC(C)C)NC(=O)[C@H](CCCNC(=N)N)NC(=O)[C@H](CCC(N)=O)NC(=O)[C@@H](NC(=O)[C@H](C)NC(=O)[C@@H]1CSSC[C@H](NC(=O)[C@@H](N)CCCCNC(=O)COCCOCCNC(=O)CC[C@H](NC(=O)CCCCCCCCCCCCCCCCCCC(=O)O)C(=O)O)C(=O)N[C@@H](CC(N)=O)C(=O)N[C@@H]([C@@H](C)O)C(=O)N[C@@H](C)C(=O)N[C@@H]([C@@H](C)O)C(=O)N1)[C@@H](C)O)C(=O)N1CCC[C@H]1C(=O)N[C@@H](CO)C(=O)N[C@@H](CO)C(=O)N[C@H](C(=O)N[C@@H](CC(N)=O)C(=O)N[C@H](C(=O)NCC(=O)N1CCC[C@H]1C(=O)N[C@@H](CC(N)=O)C(=O)N[C@H](C(=O)N[C@@H](Cc1ccc(O)cc1)C(N)=O)[C@@H](C)O)C(C)C)[C@@H](C)O, also called 17R, 21P, 27P, 34P)
88 pM	K([AEEA-γGlu-C20 diacid])CNTATCATQRLANFLRHSSPNFGAIPSSTNVGPHTY-NH2 (disulfide 2-7; N-terminus assumed; SMILES CC[C@H](C)[C@H](NC(=O)[C@H](C)NC(=O)CNC(=O)[C@H](Cc1ccccc1)NC(=O)[C@H](CC(N)=O)NC(=O)[C@@H]1CCCN1C(=O)[C@H](CO)NC(=O)[C@H](CO)NC(=O)[C@H](Cc1c[nH]cn1)NC(=O)[C@H](CCCNC(=N)N)NC(=O)[C@H](CC(C)C)NC(=O)[C@H](Cc1ccccc1)NC(=O)[C@H](CC(N)=O)NC(=O)[C@H](C)NC(=O)[C@H](CC(C)C)NC(=O)[C@H](CCCNC(=N)N)NC(=O)[C@H](CCC(N)=O)NC(=O)[C@@H](NC(=O)[C@H](C)NC(=O)[C@@H]1CSSC[C@H](NC(=O)[C@@H](N)CCCCNC(=O)COCCOCCNC(=O)CC[C@H](NC(=O)CCCCCCCCCCCCCCCCCCC(=O)O)C(=O)O)C(=O)N[C@@H](CC(N)=O)C(=O)N[C@@H]([C@@H](C)O)C(=O)N[C@@H](C)C(=O)N[C@@H]([C@@H](C)O)C(=O)N1)[C@@H](C)O)C(=O)N1CCC[C@H]1C(=O)N[C@@H](CO)C(=O)N[C@@H](CO)C(=O)N[C@H](C(=O)N[C@@H](CC(N)=O)C(=O)N[C@H](C(=O)NCC(=O)N1CCC[C@H]1C(=O)N[C@@H](Cc1c[nH]cn1)C(=O)N[C@H](C(=O)N[C@@H](Cc1ccc(O)cc1)C(N)=O)[C@@H](C)O)C(C)C)[C@@H](C)O, also called 17R, 21P, 27P, 34P, 35H)
48 pM	K([AEEA-γGlu-C20 diacid])CNTATCATQRLAGFLRHSSPNFGAIPSSTPVGSNTY-NH2 (disulfide 2-7; N-terminus assumed; SMILES CC[C@H](C)[C@H](NC(=O)[C@H](C)NC(=O)CNC(=O)[C@H](Cc1ccccc1)NC(=O)[C@H](CC(N)=O)NC(=O)[C@@H]1CCCN1C(=O)[C@H](CO)NC(=O)[C@H](CO)NC(=O)[C@H](Cc1c[nH]cn1)NC(=O)[C@H](CCCNC(=N)N)NC(=O)[C@H](CC(C)C)NC(=O)[C@H](Cc1ccccc1)NC(=O)CNC(=O)[C@H](C)NC(=O)[C@H](CC(C)C)NC(=O)[C@H](CCCNC(=N)N)NC(=O)[C@H](CCC(N)=O)NC(=O)[C@@H](NC(=O)[C@H](C)NC(=O)[C@@H]1CSSC[C@H](NC(=O)[C@@H](N)CCCCNC(=O)COCCOCCNC(=O)CC[C@H](NC(=O)CCCCCCCCCCCCCCCCCCC(=O)O)C(=O)O)C(=O)N[C@@H](CC(N)=O)C(=O)N[C@@H]([C@@H](C)O)C(=O)N[C@@H](C)C(=O)N[C@@H]([C@@H](C)O)C(=O)N1)[C@@H](C)O)C(=O)N1CCC[C@H]1C(=O)N[C@@H](CO)C(=O)N[C@@H](CO)C(=O)N[C@H](C(=O)N1CCC[C@H]1C(=O)N[C@H](C(=O)NCC(=O)N[C@@H](CO)C(=O)N[C@@H](CC(N)=O)C(=O)N[C@H](C(=O)N[C@@H](Cc1ccc(O)cc1)C(N)=O)[C@@H](C)O)C(C)C)[C@@H](C)O, also called 14G, 17R, 21P, 27P, 31P)
